Experimental data reported in the supplement of paper PMC10567573.

B1: PPEF2 (parent)
chain: AFKAAALIQRWYRRYVARLEMRRR
B2: C8orf76 (parent)
chain: LYLQLAICSSLQNLEKTIFCLQKL

Variants of: B1
Test: protein stability index of a GFP-peptide fusion (GPS, HEK-293T) (PSI 1-6); higher = more stable
Conditions: c terminus: a fixed tail appended
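Also: lentivirally expressed fusions sorted by FACS into six bins by GFP to DsRed ratio, PSI derived from sequencing read proportions per bin multiplied by bin number.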

Variant	protein stability index
VFKAAALIQRWYRRYVARLEMRRR	3.96
NFKAAALIQRWYRRYVARLEMRRR	3.6
PFKAAALIQRWYRRYVARLEMRRR	3.44
QFKAAALIQRWYRRYVARLEMRRR	3.52
MFKAAALIQRWYRRYVARLEMRRR	3.01
WFKAAALIQRWYRRYVARLEMRRR	1.77
HFKAAALIQRWYRRYVARLEMRRR	2.59
IFKAAALIQRWYRRYVARLEMRRR	3.77
RFKAAALIQRWYRRYVARLEMRRR	3.66
LFKAAALIQRWYRRYVARLEMRRR	4.05
GFKAAALIQRWYRRYVARLEMRRR	2.17
TFKAAALIQRWYRRYVARLEMRRR	3.4
DFKAAALIQRWYRRYVARLEMRRR	2.36
CFKAAALIQRWYRRYVARLEMRRR	3.54
EFKAAALIQRWYRRYVARLEMRRR	4.09
FFKAAALIQRWYRRYVARLEMRRR	2.62
ADKAAALIQRWYRRYVARLEMRRR	3.53
AAKAAALIQRWYRRYVARLEMRRR	3.87
AGKAAALIQRWYRRYVARLEMRRR	2.87
AEKAAALIQRWYRRYVARLEMRRR	4.95

Variants of: B2
Test: as above
Conditions: c terminus: a fixed tail appended

Variant	protein stability index
LYLQLAICSSLQDLEKTIFCLQKL	3.49
LYLQLAICSSLQRLEKTIFCLQKL	3.01
LYLQLAICSSLQSLEKTIFCLQKL	3.71
LYLQLAICSSLQMLEKTIFCLQKL	3.43
LYLQLAICSSLQPLEKTIFCLQKL	3.23
LYLQLAICSSLQFLEKTIFCLQKL	2.51
LYLQLAICSSLQCLEKTIFCLQKL	2.25
LYLQLAICSSLQILEKTIFCLQKL	1.93
LYLQLAICSSLQALEKTIFCLQKL	2.98
LYLQLAICSSLQYLEKTIFCLQKL	2.21
LYLQLAICSSLQNLPKTIFCLQKL	3.75
LYLQLAICSSLQNLRKTIFCLQKL	2.63
LYLQLAICSSLQNLGKTIFCLQKL	1.69
LYLQLAICSSLQNLDKTIFCLQKL	1.75
LYLQLAICSSLQNLCKTIFCLQKL	2.82
LYLQLAICSSLQNLFKTIFCLQKL	4.35
LYLQLAICSSLQNLMKTIFCLQKL	3.11
LYLQLAICSSLQNLLKTIFCLQKL	4.03
LYLQLAICSSLQNLVKTIFCLQKL	3.25
LYLQLAICSSLQNLWKTIFCLQKL	3.01
LYLQLAICSSLQNLQKTIFCLQKL	3.27
LYLQLAICSSLQNLTKTIFCLQKL	1.99
LYLQLAICSSLQNLIKTIFCLQKL	2.49
LYLQLAICSSLQNLEKTIFCGQKL	3.2
LYLQLAICSSLQNLEKTIFCFQKL	3.62

Variant	protein stability index
LYLQLAICSSLQNLEKTIFCNQKL	2.25
LYLQLAICSSLQNLEKTIFCHQKL	2.76
LYLQLAICSSLQNLEKTIFCYQKL	3.14
LYLQLAICSSLQNLEKTIFCDQKL	2.09
LYLQLAICSSLQNLEKTIFCCQKL	2.88
LYLQLAICSSLQNLEKTIFCEQKL	1.42
LYLQLAICSSLQNLEKTIFCAQKL	2.77
LYLQLAICSSLQNLEKTIFCSQKL	2.59
LYLQLAICSSLQNLEKTIFCPQKL	3.85
LYLQLAICSSLQNLEKTIFCRQKL	2.08
LYLQLAICSSLQNLEKTIFVLQKL	3.44
LYLQLAICSSLQNLEKTIFHLQKL	3.83
LYLQLAICSSLQNLEKTIFPLQKL	1.88
LYLQLAICSSLQNLEKTIFILQKL	2.15
LYLQLAICSSLQNLEKTIFMLQKL	1.94
LYLQLAICSSLQNLEKTIFYLQKL	2.18
LYLQLAICSSLQNLEKTIFWLQKL	2.66
LYLQLAICSSLQNLEKTIFKLQKL	2.36
LYLQLAICSSLQNLEKTIFELQKL	1.86
LYLQLAICSSLQNLEKTIFTLQKL	2.13
LYLQLAICSSLQNLEKTIFDLQKL	2.93
LYLQLAICSSLQNLEKTIFGLQKL	3.1
LYLQLAICSSLQNLEKTIFFLQKL	2.83
LYLQLAICSSLQNLEKTIFALQKL	2.85
LYLQLAICSSLQNLEKTIFRLQKL	3.09

Variant	protein stability index
LYLQLAICSSLQNLEKTIFCLWKL	1.93
LYLQLAICSSLQNLEKTIFCLIKL	1.46
LYLQLAICSSLQNLEKTIFCLDKL	2.46
LYLQLAICSSLQNLEKTIFCLSKL	1.58
LYLQLAICSSLQNLEKTIFCLNKL	2.31
LYLQLAICSSLQNLEKTIFCLVKL	2.58
LYLQLAICSSLQNLEKTIFCLMKL	3.12
LYLQLAICSSLQNLEKTIFCLFKL	3.5
LYLQLAICSSLQNLEKTIFCLPKL	2.69
LYLQLAICSSLQNLEKTIFCLKKL	3.39
LYLQLAICSSLQNLEKTIFCLCKL	2.56
LYLQLAICSSLQNLEKTIFCLTKL	3.32
LYLQLAICSVLQNLEKTIFCLQKL	3.44
LYLQLAICSSLQNLEKTIECLQKL	1.81
LYLQLAICSSLQNLEKTIVCLQKL	2
LYLQLAICSSLQNLEKTIKCLQKL	3.04
LYLQLAICSSLQNLEKTICCLQKL	2.27
LYLQLAICSSLQNLEKTIWCLQKL	2.24
LYLQLAICSSLQNLEKTILCLQKL	3.21
LYLQLAICSSLQNLEKTIICLQKL	2.8
LYLQLAICSSLQNLEKTIMCLQKL	3.62
LYLQLAICSSLQNLEKTINCLQKL	3.32
LYLQLAICSSLQNLEKTIGCLQKL	2.83
LYLQLAICSSLQNLEKTITCLQKL	1.71
